First the molecules themselves.
T1: PTP1B (Homo sapiens, UniProt P18031)
T1 construct: human PTP1B phosphatase domain (residues 2–321) with a GST tag; GST (cleaved yes); made in house; host or cells: E. coli BL21 (DE3)
T1 sequence (P18031 2-321): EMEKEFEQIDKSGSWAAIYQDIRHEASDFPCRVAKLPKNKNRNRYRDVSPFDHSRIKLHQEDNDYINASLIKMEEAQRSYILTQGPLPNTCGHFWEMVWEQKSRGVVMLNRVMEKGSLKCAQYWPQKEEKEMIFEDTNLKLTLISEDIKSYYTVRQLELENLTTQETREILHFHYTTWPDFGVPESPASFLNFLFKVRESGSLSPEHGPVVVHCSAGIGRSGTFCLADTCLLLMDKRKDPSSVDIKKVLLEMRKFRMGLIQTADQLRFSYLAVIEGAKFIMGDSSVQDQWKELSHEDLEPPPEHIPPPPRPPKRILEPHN

T2: IRK pYpY activation loop peptide
T2 peptide: ETD[pY][pY]RKGGKGL

T3: PTP1B phosphatase domain (residues 2-321) C215A/D181A/Q262A triple mutant (human, UniProt P18031 2-321, D181A | C215A | Q262A)
T3 construct: Protein tyrosine phosphatase 1B, human, phosphatase domain, residues 2-321, D181A/C215A/Q262A; pPROEX vector; no cleavage of the His tag is told; also called D181A/Q262A/C215A; PTP1B D/Q/C; source: E. coli BL21 (DE3), purified (nickel resin, size exclusion)
T3 sequence (looked up): T1 sequence (P18031 2-321) with D180A, C214A, Q261A

T4: PTP1B phosphatase domain (residues 2-321) D181A/Q262A (human, UniProt P18031 2-321, D181A | Q262A)
T4 construct: Protein tyrosine phosphatase 1B, human, phosphatase domain, residues 2-321, D181A/Q262A; pPROEX vector; no cleavage of the His tag is told; also called PTP1B D181A/Q262A; PTP1B D/Q; source: E. coli BL21 (DE3), purified (nickel resin, size exclusion)
T4 sequence (looked up): T1 sequence (P18031 2-321) with D180A, Q261A

B1: PTP1B phosphatase domain (residues 2-321) R47A (enzyme)
chain: T1 sequence (P18031 2-321) with R46A
B2: human PTP1B phosphatase domain (residues 2-321), wild type (enzyme, UniProt P18031 2-321, looked up)
chain: T1 sequence (P18031 2-321)
B3: TYK2 pYpY activation loop peptide (peptide)
peptide: VPEGHE[pY][pY]RVREDGD
notes: printed as VPEGHE[pY][pY]RVREDGD; In the crystal with PTP1B D181A/Q262A the peptide is seen as the dephosphorylated product; source: synthetic peptide
B4: JAK3 pYpY activation loop peptide (peptide)
peptide: LLPLDKD[pY][pY]VVREPGQ
notes: printed as LLPLDKD[pY][pY]VVREPGQ; In the crystal with PTP1B D181A/Q262A the peptide is seen as the dephosphorylated product; also called JAK3 peptide; source: synthetic peptide
B5: JAK1 pYpY activation loop peptide (peptide)
peptide: AIETDKE[pY][pY]TVKDDLD
notes: printed as AIETDKE[pY][pY]TVKDDLD; In the crystal with PTP1B D181A/Q262A the peptide is seen as the dephosphorylated product; also called JAK1 peptide; source: synthetic peptide
B6: JAK2 pYpY activation loop peptide (peptide)
peptide: VLPQDKE[pY][pY]KVKEPGE
notes: printed as VLPQDKE[pY][pY]KVKEPGE; In the crystal with PTP1B D181A/Q262A the peptide is seen as the dephosphorylated product; source: synthetic peptide

In one test the test system is PTP1B R47A. The test is described as follows: 1H NMR dephosphorylation of bisphosphorylated activation loop peptides. The format is biochemical, human. Particulars: bisphosphorylated peptide as substrate, PTP1B R47A mutant. The text has this: Fig. 6 PTP1B preferentially targets different phosphotyrosines in the JAK2 and IRK activation loops. a Michaelis–Menten analysis of PTP1B-induced dephosphorylation via the malachite green assay. Data are from three independent experiments, error bars are SEM. b Dephosphorylation of mono- and bisphosphorylated peptides over time as measured by 1H NMR to determine reaction rate (shown as s-1). c 1H NMR was used to track the dephosphorylation of JAK2 and IRK bisphosphorylated activation loop peptides over time. […] Arg47 has an effect on the preference for dephosphorylation of the second phosphotyrosine in JAK2, with loss of selectivity for dephosphorylation of either phosphotyrosine in the R47A PTP1B mutant. […]
(§1) Specifically, we measured the appearance of the individual YpY, pYY and YY products over time (Supplementary Fig. S6). […]
0.5 mg of JAK2 or IRK pYpY, pYY and YpY peptides were dissolved in 500 μl of 20 mM Tris (pH 7.5), 2 mM TCEP, and 100 mM NaCl. […] To start the dephosphorylation reaction, 2 nM PTP1B was added to each sample and multiple 1H NMR spectra were recorded over the course of 1 h. Data was analyzed using TopSpin v3.2 (Bruker). The concentration of each species of ALP (pYpY, pYY, or YpY) in the reaction was calculated by integrating the area under the peak and normalising these values to the starting peptide concentration.

Test [1] deals with T1, PTP1B. Briefly: 1H NMR dephosphorylation of activation loop peptides. Particulars: bisphosphorylated peptide as substrate, WT PTP1B, Fig. 6c. The class given is biochemical.
Source text: A Michaelis-Menten analysis of dephosphorylation of JAK2 and IRK activation loop peptides indicated an enhanced dephosphorylation rate for both peptides when in the bisphosphorylated state (Fig. 6a), consistent with previous data on IRK[7]. […] Using ^1H NMR we then measured the dephosphorylation of individual YpY, pYY and YY peptides over time (Supplementary Fig. S5), and similarly, observed an overall preference for bisphosphorylated peptides, however JAK2 YpY was dephosphorylated at a similar rate as the pYpY peptides, highlighting again the preference for this residue by PTP1B (Fig. 6).
Fig. 6 PTP1B preferentially targets different phosphotyrosines in the JAK2 and IRK activation loops. a Michaelis–Menten analysis of PTP1B-induced dephosphorylation via the malachite green assay. Data are from three independent experiments, error bars are SEM. b Dephosphorylation of mono- and bisphosphorylated peptides over time as measured by 1H NMR to determine reaction rate (shown as s-1). c 1H NMR was used to track the dephosphorylation of JAK2 and IRK bisphosphorylated activation loop peptides over time. […]
as §1
0.5 mg of JAK2 or IRK pYpY, pYY and YpY peptides were dissolved in 500 μl of 20 mM Tris (pH 7.5), 2 mM TCEP, and 100 mM NaCl. […] Data was analyzed using TopSpin v3.2 (Bruker). […]

In test [2] the test system is PTP1B. The following applies: peptide with Phe in the −1 position; cited from earlier work.
Test [3] has as its target B6.
Test [4] concerns the target B6. The test is described as follows: cell-based or functional assay.
Test [5] has as its target T2, IRK pYpY activation loop peptide. Briefly: cell-based or functional assay.
The target in test [6] is T3, PTP1B phosphatase domain (residues …). The test is described as follows: crystal structure; catalytically dead PTP1B D181A/Q262A/C215A co-crystallised with a 2-fold excess of phosphopeptide; substrate-bound. The following applies: both partners purified.
Test [7] concerns the target T4, PTP1B phosphatase domain (residues …). Briefly: crystal structure; PTP1B D181A/Q262A co-crystallised with a 2-fold excess of bisphosphorylated peptide; the tyrosyl-peptide product and free phosphate are seen in the active site. Particulars: both partners purified.

Substitutions are numbered along the chain they refer to. Numbers in names are those of the source. Square brackets hold non-standard residues; d marks the D form. Ends that are not written are not given here. pY = N[C@@H](Cc1ccc(OP(=O)(O)O)cc1)C(=O)O

Consider VLPQDKE[pY][pY]KVKEPGE [JAK2 pYpY], for which the “preference for dephosphorylation of the second pTyr over the first” value in the test with PTP1B R47A came out at 1.3 fold. Moreover, the “rate of dephosphorylation of the second pTyr relative to the first” value on PTP1B [1] (1H NMR tracking of pYY and YpY products) is ~ 3 fold. As to “ELEFpYMDYE [peptide of PDB 1EEO with Phe in the −1 position, literature PTP1B substrate]”, the “substrate quality for PTP1B” value in the test on PTP1B [2] is reported as “potent PTP1B substrate”.

Turning to ETD[pY][pY]RKGGKGL [IRK pYpY], at PTP1B [1] (1H NMR tracking of products), the “preference for dephosphorylation of the first pTyr over the second” value is recorded as ~ 1.6 fold. B1 came in with a preference for dephosphorylation of the second pTyr against the first in the bisphosphorylated peptide, followed by 1H NMR in test [3] of 1.3 fold. In the case of B2, the “rate of dephosphorylation of the second pTyr against the first in the bisphosphorylated peptide, followed by 1H NMR” value in test [4] is about 3 fold. In test [5], the “preference for dephosphorylation of the first pTyr against the second in the bisphosphorylated peptide, followed by 1H NMR” value was about 1.6 fold. On to B3, for which the binding result in test [6] and in test [7] was “binds” each time. Take VLPQDKE[pY]YKVKEPGE (source: synthetic peptide) [JAK2 pYY activation loop peptide]: the binding result in test [6] is recorded as “binds”. B4: the binding result in test [7] is on record as “binds”. On the same count and under the same terms, for B5 the value was “binds”. For the molecule B6, the binding result in test [6] and in test [7] was “binds” throughout. As to VLPQDKEY[pY]KVKEPGE (source: synthetic peptide) [JAK2 YpY activation loop peptide], the binding result in test [6] is on record as “binds”.

Values taken from paper PMC10267100 (Communications Biology, 2023).
